IntAct's records for PubMed 15784897

What was measured:
hck_human HCK = hck_human HCK (UniProt P08631)
grb2_human GRB2 = grb2_human GRB2 (UniProt P62993)
fyn_human FYN = fyn_human FYN (UniProt P06241)
lck_human LCK = lck_human LCK (UniProt P06239)

Measured: effect of a mutation on the interaction

Sequence of fyn_human FYN (P06241 whole entry, looked up): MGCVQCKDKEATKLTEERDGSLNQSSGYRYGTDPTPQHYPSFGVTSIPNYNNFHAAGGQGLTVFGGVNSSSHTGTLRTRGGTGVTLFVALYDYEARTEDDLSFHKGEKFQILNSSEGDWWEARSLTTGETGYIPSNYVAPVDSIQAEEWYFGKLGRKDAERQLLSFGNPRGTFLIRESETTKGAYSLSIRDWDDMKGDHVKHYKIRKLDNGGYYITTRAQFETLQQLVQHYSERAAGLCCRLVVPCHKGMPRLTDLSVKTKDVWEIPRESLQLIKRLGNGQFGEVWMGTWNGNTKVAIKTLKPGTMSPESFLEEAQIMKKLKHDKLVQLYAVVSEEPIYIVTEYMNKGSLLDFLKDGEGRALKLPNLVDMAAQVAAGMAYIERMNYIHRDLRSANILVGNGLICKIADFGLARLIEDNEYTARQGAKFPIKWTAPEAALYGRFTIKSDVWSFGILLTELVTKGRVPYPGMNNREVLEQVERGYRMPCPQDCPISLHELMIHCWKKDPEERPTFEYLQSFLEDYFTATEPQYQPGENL
Sequence of hck_human HCK (P08631 whole entry, looked up): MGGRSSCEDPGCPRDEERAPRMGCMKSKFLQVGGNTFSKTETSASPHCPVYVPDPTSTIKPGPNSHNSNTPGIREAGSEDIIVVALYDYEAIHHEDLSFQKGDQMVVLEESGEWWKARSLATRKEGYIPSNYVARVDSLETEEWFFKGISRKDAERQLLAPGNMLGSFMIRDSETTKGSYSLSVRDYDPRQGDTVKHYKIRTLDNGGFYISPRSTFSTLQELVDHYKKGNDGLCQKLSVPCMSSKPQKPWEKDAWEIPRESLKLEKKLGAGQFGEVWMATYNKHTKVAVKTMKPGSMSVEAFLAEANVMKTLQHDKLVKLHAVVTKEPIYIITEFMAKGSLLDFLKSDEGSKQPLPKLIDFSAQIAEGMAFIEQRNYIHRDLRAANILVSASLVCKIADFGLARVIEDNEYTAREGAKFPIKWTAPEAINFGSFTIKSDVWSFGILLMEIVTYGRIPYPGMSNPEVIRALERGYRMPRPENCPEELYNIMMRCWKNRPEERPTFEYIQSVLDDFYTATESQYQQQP
Sequence of lck_human LCK (P06239 whole entry, looked up): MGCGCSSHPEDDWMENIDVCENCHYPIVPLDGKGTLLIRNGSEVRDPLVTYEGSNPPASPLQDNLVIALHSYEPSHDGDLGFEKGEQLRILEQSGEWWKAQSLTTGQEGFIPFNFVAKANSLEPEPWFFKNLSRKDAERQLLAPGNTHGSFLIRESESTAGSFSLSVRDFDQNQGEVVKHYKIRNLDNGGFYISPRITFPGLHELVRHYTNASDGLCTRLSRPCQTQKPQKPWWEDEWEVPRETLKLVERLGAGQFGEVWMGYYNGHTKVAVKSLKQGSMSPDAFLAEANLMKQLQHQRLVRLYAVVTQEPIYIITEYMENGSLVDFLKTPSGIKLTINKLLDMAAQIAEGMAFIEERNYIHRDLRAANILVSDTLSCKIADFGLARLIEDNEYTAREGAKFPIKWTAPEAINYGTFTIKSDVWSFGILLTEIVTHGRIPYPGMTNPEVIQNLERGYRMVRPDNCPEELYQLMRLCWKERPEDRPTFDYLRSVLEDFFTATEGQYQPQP

Genome polyprotein (Hepatitis C virus genotype 1b (isolate Con1) (HCV)), Q9WMX2 P2322A;P2325A;P2326A
disrupting interaction: all assays above
